Measured values: patent US20200317817A1 (XOMA US, published 2020)

How the values were obtained:
[1] = target: T1, human PTH1R overexpressed on Saos-2 cells (human, UniProt Q03431 27-593); assay: flow cytometry on Saos-2 cells overexpressing human PTH1R, in the presence of 3 uM PTHrP, PE anti-human IgG
T1 construct: whole, on cells; also called Saos-2 human PTH1R cells
T1 sequence (looked up): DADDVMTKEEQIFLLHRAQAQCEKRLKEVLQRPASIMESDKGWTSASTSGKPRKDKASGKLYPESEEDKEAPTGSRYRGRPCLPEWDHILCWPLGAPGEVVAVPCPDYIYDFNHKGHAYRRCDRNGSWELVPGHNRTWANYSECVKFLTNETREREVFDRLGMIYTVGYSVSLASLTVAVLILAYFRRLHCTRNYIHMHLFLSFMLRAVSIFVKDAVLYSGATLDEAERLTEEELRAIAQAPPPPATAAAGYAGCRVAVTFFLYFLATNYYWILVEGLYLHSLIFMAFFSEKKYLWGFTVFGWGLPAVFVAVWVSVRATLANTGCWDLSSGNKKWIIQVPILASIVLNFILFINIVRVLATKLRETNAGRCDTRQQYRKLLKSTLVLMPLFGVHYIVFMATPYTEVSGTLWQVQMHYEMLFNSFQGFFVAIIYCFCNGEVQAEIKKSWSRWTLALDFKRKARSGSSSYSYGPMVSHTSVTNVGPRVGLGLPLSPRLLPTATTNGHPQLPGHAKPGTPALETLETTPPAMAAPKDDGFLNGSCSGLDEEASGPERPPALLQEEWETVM
Text: Antibody binding was detected with R-Phycoerythrin anti-human IgG.

[2] = target: T2, human PTH1R overexpressed on CHO cells (human, UniProt Q03431 27-593); assay: cell-based or functional assay
T2 sequence (looked up): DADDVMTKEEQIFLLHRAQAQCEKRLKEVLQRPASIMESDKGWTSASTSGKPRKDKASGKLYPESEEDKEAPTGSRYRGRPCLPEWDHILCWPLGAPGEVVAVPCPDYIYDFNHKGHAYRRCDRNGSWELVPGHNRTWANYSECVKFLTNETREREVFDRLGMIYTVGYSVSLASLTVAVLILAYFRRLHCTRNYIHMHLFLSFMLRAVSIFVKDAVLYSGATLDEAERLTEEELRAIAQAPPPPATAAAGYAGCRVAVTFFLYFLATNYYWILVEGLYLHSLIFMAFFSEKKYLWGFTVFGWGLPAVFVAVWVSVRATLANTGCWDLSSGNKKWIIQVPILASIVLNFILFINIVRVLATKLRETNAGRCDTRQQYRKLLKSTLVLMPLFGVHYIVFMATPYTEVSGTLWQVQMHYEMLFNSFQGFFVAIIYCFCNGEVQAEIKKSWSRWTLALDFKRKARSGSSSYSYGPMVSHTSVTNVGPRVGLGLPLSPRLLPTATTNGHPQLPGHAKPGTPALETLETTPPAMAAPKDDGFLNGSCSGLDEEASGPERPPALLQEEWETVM

[3] = target: T3, mouse PTH1R overexpressed on CHO cells (mouse, UniProt P41593 27-591); assay: cell-based or functional assay
T3 sequence (looked up): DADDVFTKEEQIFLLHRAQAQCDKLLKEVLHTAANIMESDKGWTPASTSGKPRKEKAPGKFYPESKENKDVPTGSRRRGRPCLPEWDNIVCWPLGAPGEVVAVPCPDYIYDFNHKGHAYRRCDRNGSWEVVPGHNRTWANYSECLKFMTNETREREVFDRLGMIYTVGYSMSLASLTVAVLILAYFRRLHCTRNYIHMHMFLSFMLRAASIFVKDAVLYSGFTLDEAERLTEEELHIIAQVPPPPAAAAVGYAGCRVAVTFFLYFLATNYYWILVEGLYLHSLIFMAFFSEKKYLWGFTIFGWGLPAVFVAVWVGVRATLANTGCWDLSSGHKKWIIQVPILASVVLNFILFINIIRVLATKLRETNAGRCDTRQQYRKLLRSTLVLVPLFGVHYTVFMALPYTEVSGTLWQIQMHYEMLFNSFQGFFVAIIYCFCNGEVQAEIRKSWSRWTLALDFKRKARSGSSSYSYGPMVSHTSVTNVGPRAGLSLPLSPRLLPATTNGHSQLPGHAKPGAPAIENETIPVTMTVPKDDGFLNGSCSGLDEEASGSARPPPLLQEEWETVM

[4] = target: T4, human PTH2R overexpressed on CHO cells (human, UniProt P49190 25-550); assay: flow cytometry on CHO cells overexpressing human PTH2R, 1 hr at 4 C, APC anti-human IgG
T4 construct: whole, on cells; also called CHO human PTH2R
T4 sequence (P49190 25-550): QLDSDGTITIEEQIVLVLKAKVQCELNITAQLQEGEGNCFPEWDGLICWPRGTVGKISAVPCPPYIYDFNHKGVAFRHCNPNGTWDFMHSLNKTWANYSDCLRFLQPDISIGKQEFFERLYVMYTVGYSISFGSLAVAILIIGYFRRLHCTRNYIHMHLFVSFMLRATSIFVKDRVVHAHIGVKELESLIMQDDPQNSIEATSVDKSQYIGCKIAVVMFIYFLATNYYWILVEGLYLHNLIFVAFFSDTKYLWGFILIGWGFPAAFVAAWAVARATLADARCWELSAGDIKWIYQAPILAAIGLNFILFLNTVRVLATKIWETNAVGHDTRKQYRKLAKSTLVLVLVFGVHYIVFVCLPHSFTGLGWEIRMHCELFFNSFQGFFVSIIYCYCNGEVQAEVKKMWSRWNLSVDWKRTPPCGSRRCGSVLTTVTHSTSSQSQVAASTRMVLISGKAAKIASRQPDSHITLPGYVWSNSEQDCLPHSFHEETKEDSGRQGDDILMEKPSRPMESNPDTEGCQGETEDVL
Experimental: Increasing concentrations of anti-PTH1R antibodies were added to CHO cells overexpressing human PTH2R and incubated for 1 hr at 4° C. (FIG. 8). Cells were washed twice with FACS Buffer and antibody binding was detected with anti-human IgG APC. […] Anti-KLH.G2 was used a negative control for binding.
PTH2R has a 51% homology to PTH1R. […] Following two washes, cells were incubated with Allophycocyanin (APC) AffiniPure F(ab′)₂ Fragment Goat Anti-Human IgG (H+L) (Jackson ImmunoResearch, West Grove, Pa.) for 20 minutes at 4° C. Cells were washed twice and resuspended in FACS Buffer. Samples were acquired using BD Cytometer (BD Biosciences, San Jose, Calif.) and data were analyzed using FlowJo (FlowJo, LLC, Ashland, Oreg.) and Prism (GraphPad Software, La Jolla, Calif.). […] Anti-KLH.G2 was used a negative control for binding.

- EC50 [1]: 0.655 µM
- IC50, inhibition of PTH(1-34)-induced cAMP accumulation [2]: 0.0166 µM
- IC50, inhibition of PTHrP(1-34)-induced cAMP accumulation [2]: 0.00654 µM
- IC50, inhibition of PTHrP(1-34)-induced cAMP accumulation [3]: 0.00266 µM
- binding result [4]: no binding (tested: about 160 nM)
B1: XPA.85.329 (antibody, V domains shown)
VH: QMQLVQSGAEVKKPGSSVKVSCKASGGTFSSYAISWVRQAPGQGLEWMGGIIPIFGTANYAQKFQGRVTITADESTSTAYMELSSLRSEDTAVYYCARGYVVARLWGQGTLVTVSS
VL: DIVMTQTPLSLSVTPGQPASISCKSSQSLLHIDGLTYLYWYLQKPGQPPQLLIYEVSHRFSGVSDKFSGSGSGTDFTLTISRVEAEDVGVYYCMQSLHLPITFGQGTRLEIK
notes: IgG; also called Ab329; XPA.329
